# Measured values: US11278600B2, “Human alpha-galactosidase variants” (Codexis, Inc., priority 2014, dated 2022)
# Substitutions are numbered along the chain they refer to.
# B1: 15 (protein)
# chain: LDNGLARTPTMGWLHWERFMCNLDCQEEPDSCISEKLFMEMAELMVSDGWKDAGYEYLCIDDCWMAPQRDSEGRLQADPQRFPHGIRQLANYVHSKGLKLGIYADVGNKTCAGFPGSFGYYDIDAQTFADWGVDLLKFDGCYCDSLENLADGYKHMSLALNRTGRSIVYSCEWPLYMWPFQKPNYTEIRQYCNHWRNFADIDDSWKSVKSILDWTSFNQERIVDVAGPGGWNDPDMLVIGNFGLSWNQQVTQMALWAIMAAPLFMSNDLRHISPQAKALLQDKDVIAINQDPLGKQGYRLRKGDNFEVWERPLSGLAWAVAMINRQEIGGPRSYTIAVASLGKGVACNPACFITQLLPVKRKLGFYEWTSRLKSHINPTGTVLLQLENTMQMSLKDLL
# modifications: Synthetic Polypeptide sequence of Variant No. 15 of mature Human GLA
# B2: 16 (protein)
# chain: LDNGLARTPTMGWLHWERFMCNLDCQEEPDSCISEKLFMEMAELMVSDGWKDAGYEYLCIDDCWMAPQRDSEGRLQADPQRFPHGIRQLANYVHSKGLKLGIYADVGNKTCAGFPGSFGYYDIDAQTFADWGVDLLKFDGCYCDSLENLADGYKHMSLALNRTGRSIVYSCEWPLYMWPFQKPNYTEIRQYCNHWRNFADIDDSWKSIKSILDWTSFNQERIVDVAGPGGWNDPDMLVIGNFGLSWNQQVTQMALWAIMAAPLFMSNDLRHISPQAKALLQDKDVIAINQDPLGKQGYQLRQGDNFEVWERPLSGLAWAVAMINRQEIGGPRSYTIAVASLGKGVACNPACFITQLLPVKRKLGFYEWTSRLKSHVNPTGTVLLQLENTMQMSLKDLLL
# modifications: Synthetic Polypeptide sequence of Variant No. 16 of mature Human GLA
# B3: 25 (protein)
# chain: B2 chain with K36Q, D48E, K373R, V376I
# modifications: Synthetic Polypeptide sequence of Variant No. 25 of mature Human GLA
# B4: 24 (protein)
# chain: B2 chain with D48E, K373R
# modifications: Synthetic Polypeptide sequence of Variant No. 24 of mature Human GLA
# B5: 21 (protein)
# chain: B2 chain with D48E, I208V, N247D
# modifications: Synthetic Polypeptide sequence of Variant No. 21 of mature Human GLA
# B6: 17 (protein)
# chain: B2 chain with D48G, V376I
# modifications: Synthetic Polypeptide sequence of Variant No. 17 of mature Human GLA
# B7: 20 (protein)
# chain: B2 chain with D48E, I208V, N247D, Q299R
# modifications: Synthetic Polypeptide sequence of Variant No. 20 of mature Human GLA
# B8: 22 (protein)
# chain: B2 chain with D48E, I208V, Q299R, K373R
# modifications: Synthetic Polypeptide sequence of Variant No. 22 of mature Human GLA
# B9: 19 (protein)
# chain: B2 chain with D48E, I208V, N247D, Q299R, Q302K
# modifications: Synthetic Polypeptide sequence of Variant No. 19 of mature Human GLA
# B10: 23 (protein)
# chain: B2 chain with D48E, I208V, Q302K
# modifications: Synthetic Polypeptide sequence of Variant No. 23 of mature Human GLA
# B11: 18 (protein)
# chain: B2 chain with D48E, F217S, K373R, V376I
# modifications: Synthetic Polypeptide sequence of Variant No. 18 of mature Human GLA
# Assay: HTP-analysis of supernatants pretreated with base (MUGal hydrolysis)
# Format: biochemical
# Settings: challenge at pH 7.0; activity of the variant/activity of WT GLA (SEQ ID NO: 5); yeast supernatant
# Procedure: (§1) Yeast (INVSc1) cells transformed with vectors expressing GLA and GLA variants using the lithium acetate method were selected on SD-Ura agar plates. After 72 h incubation at 30° C. colonies were placed into the wells of Axygen® 1.1 ml 96-well deep well plates filled with 200 μl/well SD-Ura broth (2 g/L SD-Ura, 6.8 g/L yeast nitrogen base without amino acids [Sigma Aldrich]), 3.06 g/L sodium dihydrogen phosphate, 0.804 g/L disodium hydrogen phosphate, pH 6.0 supplemented with 6% glucose. The cells were allowed to grow for 20-24 hours in a Kuhner shaker (250 rpm, 30° C., and 85% relative humidity). Overnight culture samples (20 μL) were transferred into Corning Costar® 96-well deep plates filled with 380 µL of SD-ura broth supplemented with 2% glucose. The plates were incubated for 66-84 h in a Kuhner shaker (250 rpm, 30° C., and 85% relative humidity). The cells were then pelleted (4000 rpm×20 min), and the supernatants isolated and stored at 4° C. prior to analysis.
# GLA variants were challenged with basic (neutral) buffer to simulate the pHs that the variants encounter in the blood following their administration to a patient. First, 50 μL of yeast culture supernatant and 50 uL of McIlvaine buffer (pH 7.0-8.2) or 200 mM sodium bicarbonate (pH 9.1-9.7) were added to the wells of a 96-well round bottom plate. The plates were sealed and incubated at 37° C. for 1-18 h. For the assay, 10-50 μL of basic-pH-challenged sample was mixed with 0-40 μL, of McIlvaine buffer pH 4.8, 25 μL, of 1 M citrate buffer pH 4.3 and 25 μL, of 4 mM MUGal in McIlvaine buffer pH 4.8. The reactions were mixed briefly and incubated at 37° C. for 30-180 minutes, prior to quenching with 100 μL, of 1 M sodium carbonate. Hydrolysis was analyzed using a SpectraMax® M2 microplate reader monitoring fluorescence (Ex. 355 nm, Em. 448 nm).
row,Molecule,Relative Activity of GLA Variants After Challenge at pH 7.0
1,B1,+ (+ = 0.5 to 1.5 relative activity over WT GLA (SEQ ID NO: 5))
2,B2,+ (+ = 0.5 to 1.5 relative activity over WT GLA (SEQ ID NO: 5))
3,B3,+ (+ = 0.5 to 1.5 relative activity over WT GLA (SEQ ID NO: 5))
4,B4,+ (+ = 0.5 to 1.5 relative activity over WT GLA (SEQ ID NO: 5))
5,B5,++ (++ = >1.5 to 2.5 relative activity over WT GLA (SEQ ID NO: 5))
6,B6,+ (+ = 0.5 to 1.5 relative activity over WT GLA (SEQ ID NO: 5))
7,B7,++ (++ = >1.5 to 2.5 relative activity over WT GLA (SEQ ID NO: 5))
8,B8,+ (+ = 0.5 to 1.5 relative activity over WT GLA (SEQ ID NO: 5))
9,B9,+ (+ = 0.5 to 1.5 relative activity over WT GLA (SEQ ID NO: 5))
10,B10,++ (++ = >1.5 to 2.5 relative activity over WT GLA (SEQ ID NO: 5))
11,B11,++ (++ = >1.5 to 2.5 relative activity over WT GLA (SEQ ID NO: 5))

# Assay: HTP-analysis of supernatants pretreated with acid (MUGal hydrolysis)
# Format: biochemical
# Settings: challenge at pH 4.3; activity of the variant/activity of WT GLA (SEQ ID NO: 5); yeast supernatant
# Procedure: as §1
# GLA variants were challenged with acidic buffer to simulate the extreme pHs that the variants may encounter in lysosomes. First, 50 μL of yeast culture supernatant and 50 uL of McIlvaine buffer (pH 3.3-4.3) were added to the wells of a 96-well round bottom plate. The plates were sealed with a PlateLoc Thermal Microplate Sealer (Agilent) and incubated at 37° C. for 1-3 h. For the assay, 10-50 uL of acid-pH-challenged sample was mixed with 0-40 μL, of McIlvaine buffer pH 4.8, 25 μL, of 1 M citrate buffer pH 4.3 and 25 μL, of 4 mM MUGal in McIlvaine buffer pH 4.8. The reactions were mixed briefly and incubated at 37° C. for 30-180 minutes, prior to quenching with 100 μL, of 1 M sodium carbonate. Hydrolysis was analyzed using a SpectraMax® M2 microplate reader monitoring fluorescence (Ex. 355 nm, Em. 448 nm).
row,Molecule,Relative Activity of GLA Variants After Challenge at pH 4.3
1,B1,+ (+ = 0.5 to 1.5 relative activity over WT GLA (SEQ ID NO: 5))
2,B2,++ (++ = >1.5 to 2.5 relative activity over WT GLA (SEQ ID NO: 5))
3,B3,+ (+ = 0.5 to 1.5 relative activity over WT GLA (SEQ ID NO: 5))
4,B4,++ (++ = >1.5 to 2.5 relative activity over WT GLA (SEQ ID NO: 5))
5,B5,+++ (+++ = >2.5 relative activity over WT GLA (SEQ ID NO: 5))
6,B6,+ (+ = 0.5 to 1.5 relative activity over WT GLA (SEQ ID NO: 5))
7,B7,+++ (+++ = >2.5 relative activity over WT GLA (SEQ ID NO: 5))
8,B8,+ (+ = 0.5 to 1.5 relative activity over WT GLA (SEQ ID NO: 5))
9,B9,++ (++ = >1.5 to 2.5 relative activity over WT GLA (SEQ ID NO: 5))
10,B10,+++ (+++ = >2.5 relative activity over WT GLA (SEQ ID NO: 5))
11,B11,+ (+ = 0.5 to 1.5 relative activity over WT GLA (SEQ ID NO: 5))

# Assay: HTP-analysis of yeast culture supernatants, no challenge (MUGal hydrolysis)
# Format: biochemical
# Settings: activity of the variant/activity of WT GLA (SEQ ID NO: 5), yeast supernatant
# Procedure: as §1
# GLA variant activity was determined by measuring the hydrolysis of 4-methylumbelliferyl α-D-galactopyranoside (MUGal). For this assay, 5-50 μL, of yeast culture supernatant produced as described above, was mixed with 0-45 μL, of McIlvaine Buffer (McIlvaine, J. Biol. Chem., 49:183-186 [1921]), pH 4.8 and 50 μL of 2 mM MUGal in 50 mM citrate, 200 mM KCl, pH 4.6 in a 96-well, black, opaque bottom plate. The reactions were mixed briefly and incubated at 37° C. for 30-180 minutes, prior to quenching with 100 μL, of 1 M sodium carbonate. Hydrolysis was analyzed using a SpectraMax® M2 microplate reader monitoring fluorescence (Ex. 355 nm, Em. 448 nm).
row,Molecule,Relative Activity of GLA Variants After No Challenge (NC)
1,B1,+ (+ = 0.5 to 1.5 relative activity over WT GLA (SEQ ID NO: 5))
2,B2,+ (+ = 0.5 to 1.5 relative activity over WT GLA (SEQ ID NO: 5))
3,B3,+ (+ = 0.5 to 1.5 relative activity over WT GLA (SEQ ID NO: 5))
4,B4,+ (+ = 0.5 to 1.5 relative activity over WT GLA (SEQ ID NO: 5))
5,B5,+ (+ = 0.5 to 1.5 relative activity over WT GLA (SEQ ID NO: 5))
6,B6,+ (+ = 0.5 to 1.5 relative activity over WT GLA (SEQ ID NO: 5))
7,B7,+ (+ = 0.5 to 1.5 relative activity over WT GLA (SEQ ID NO: 5))
8,B8,+ (+ = 0.5 to 1.5 relative activity over WT GLA (SEQ ID NO: 5))
9,B9,+ (+ = 0.5 to 1.5 relative activity over WT GLA (SEQ ID NO: 5))
10,B10,+ (+ = 0.5 to 1.5 relative activity over WT GLA (SEQ ID NO: 5))
11,B11,+ (+ = 0.5 to 1.5 relative activity over WT GLA (SEQ ID NO: 5))
